Consider 41 sequences from the nanobody polyreactivity screen of Harvey et al. (2022).

A short description of the data set: yeast display, Sf9 membrane polyspecificity reagent, FACS + sequencing; frameworks hold sequencing errors. The method in brief:
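Using colony PCR, genes from sorted yeast display clones were amplified, then sequenced on MiSeq at 2 × 250 and filtered by CDR length. The clones had been stained with 10% biotinylated, detergent-solubilized Sf9 membrane reagent for 1 hour at 4 °C and sorted by FACS into low and high (top ~1%) gates on anti-HA and streptavidin fluorescence. Polyreactivity labels come from the gate of origin.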
Consider “QVQLVESGGGLVQAGGSLRLSCAASGRIFTRYAMGWYRKEPGKERELVAAISYGGGGTYYADSVKGRFTISRDNAKNTVYLQMNSLKPEDTAVYYCATDDPLSQINEQGMDYWGQGTQVTVSS”, for which the “polyreactivity (PSR sort gate)” value is listed as “low polyreactivity”.
To “QVQLVESGGGLVQAGGSLRLSCAASGRIFTRYAMGWYRPAPGKERELVAVIRYSGGSTYYADSVKGRFTISRDNAKNTVYLQMNSLKPEDTAVYYCAAYARGVRRYRRYDYWGQGTQVTVSS” belongs “high polyreactivity”; to “QVQLVESGGGLVQAGGSLRLSCAASGRIFTRYAMGWYRQAPGKERELVAAISYGGGGTYYADSVKGRFTISRDNAKNTVYLQMNSLKPEDTAVYYCATDDPLSQINEQGMDYWGQGTQVTVSS”, “low polyreactivity”; to “QVQLVESGGGLVQAGGSLRLSCAASGRIFTRYAMGWYRQAPGKERELVAAITQRGGTTYYADSVKGRFTISRDNAKNTVYLQMNSLKPEDTAVDYCATRYRYYTERDYWGQGTQVTVSS”, “high polyreactivity”.
Then “QVQLVESGGGLVQAGGSLRLSCAASGRIFTRYAMGWYRQAPGKERELVATISRGGNTNYADSVKGRFTISRDNAKNTVYLQMNSLKPEDTAVYYCAKYPVSRVGGYGYWGQGTQVTVSS”, with “low polyreactivity”; and “QVQLVESGGGLVQAGGSLRLSCAASGRIFTRYAMGWYRQAPGKERELVAVITRSGGSTYYADSVKGRFTISRDNAKNTVYLQMNSLKPEDTAVYYCAAKYYGEMYYWGQGTQVTVSS”, with “low polyreactivity”.
To “QVQLVESGGGLVQAGGSLRLSCAASGRIFTRYAMGWYRQAPGKERELVAVITRSGGSTYYADSVKGRFTLSRDNAKNTVYLQMNSLKPEDTAVYYCAAKYYGEMYYWGQGTQVTVSS” belongs “low polyreactivity”; to “QVQLVESGGGLVQAGGSLRLSCAASGRIFTRYTMGWYRQAPGKERQLVASITSSGSSSYYADSVKGRFTISRDYAKNTVYLQMNSLKPEDTAVYYCAARSRLRYLYDYWGHGTQVTVSS”, “high polyreactivity”; to “QVQLVESGGGLVQAGGSLRLSCAASGRIFTSNAMGWYRQAPGKERELVAAINRSGGRTYYADSVKGRFTISRDNAKNTVYLQMNSLKPEDTAVYYCNKVPYVFGFAASDYWGQGTQVTVSS”, “high polyreactivity”.
As to “QVQLVESGGGLVQAGGSLRLSCAASGRIFTSNTMGWYRPAPGKERELVAAITSSGGSMYYADSVKGRFTISRDNAKNTVYIQMNSLKPEDTAVYYCAARNYFWGQGTQVTVSS”, the “polyreactivity (PSR sort gate)” value is listed as “low polyreactivity”.
To “QVQLVESGGGLVQAGGSLRLSCAASGRIFTSYAMGWYRQAPGKEREFVAAITKSGGSTYYADSVKGRFTISRDNAKNTVYLQMNSLKPEDTAVYYCAVEGWDVYQDPYLYDYWGQGTQVTVSS” belongs “low polyreactivity”.
Then “QVQLVESGGGLVQAGGSLRLSCAASGRIFTTNAMGWYRQAPGKERELVASISKSGGSTYYADSVKGRFTISRDTAKNTVYLQMNSLKPEDTAVYYCAASSYSTSYIRGDYWGQGTQVTVSS”, with “low polyreactivity”.
Then “QVQLVESGGGLVQAGGSLRLSCAASGRIFTTYAMGWYRQAPGKERELVARITLSAGRTYYADSVKGRFTISRDNAKYSVYLQMNSLKPEDTEVYYCAAEGFYRSSPVRTYIGYDYWGQGTQVTVSS”, with “high polyreactivity”; and “QVQLVESGGGLVQAGGSLRLSCAASGRIFTTYVMGWYRQAPGKERELVAAISARGSTYYADSVKGRFTISRDNAKNTVYLEMNSLKPEDTAVYYCAAGHRLPVYYGYPRATYNYWGQGTQVTVSS”, with “low polyreactivity”.
With “QVQLVESGGGLVQAGGSLRLSCAASGRIFTVNAMGWYRQAPGKERELVAAISKSGGRTYYADSVKGRFTISRDNAKNTVYLQMNSLKPEDTAVYYCAKRVRTGSVGNFNYWGLGTQVTVSS”, the “polyreactivity (PSR sort gate)” value is on record as “high polyreactivity”.
As to “QVQLVESGGGLVQAGGSLRLSCAASGRIFTVNTMGWYREAPGKERELVASIRGGGSTNYADSVKGRFTISRDNAKNTVYLQMNSLKPEDTAVYYCAAGTSKPTPIYGYWGQGTQVPVSS”, the “polyreactivity (PSR sort gate)” value is given as “low polyreactivity”.
Then “QVQLVESGGGLVQAGGSLRLSCAASGRIFTVYAMGWYRQAPGQERELVAAISRGGSTYADSVKGRFTISRDNAKISVYLQMNSLKPEDTAVYYCAAVNFRKGEDYWGQGTQVTVSS”, with “high polyreactivity”.
To “QVQLVESGGGLVQAGGSLRLSCAASGRIFTWNGMGWYRQATGKERELVAAITSGGRTYADSVKGRFTISRDNAKNTVYLQMNSLKPEDTAVYYCAADVRRRYIWYDYWGQGTQVTVSS” belongs “high polyreactivity”; to “QVQLVESGGGLVQAGGSLRLSCAASGRIFTWYAMGWYRQAPGKERELVAAISWSGGRTYYADSVKGRFTISRDYSKNTVYLQMNSLKPEVTAVYYCAAREPGRTLDYLGQGTQVTVSS”, “high polyreactivity”; to “QVQLVESGGGLVQAGGSLRLSCAASGRIFTYNAMGWSRQAPGKERELVATITNGGRTYYADSVKGRFTISRDNAKNTVYLQMNSLKPEDTAVYYCNAGYITYWYAVFYQIDDYWGQGTQVTVSS”, “low polyreactivity”.
Then “QVQLVESGGGLVQAGGSLRLSCAASGRIFTYNAMGWYRQAPGKERELVAAISTRGGTTRYADSVKGRFTISRDNAKNTVYLQMNSLKPEDTAVYYCNAVSRGSRWDGLVRLDYWGQGTQVTVSS”, with “high polyreactivity”; and “QVQLVESGGGLVQAGGSLRLSCAASGRIFTYNAMGWYRQAPGKERELVAVISRRGGSTYYADSVKGRFTISRDYAKNTVYFQMNSLKAEDTAVYYCAGDLPSYPYEYWGQGTQVTVSS”, with “low polyreactivity”.
In the case of “QVQLVESGGGLVQAGGSLRLSCAASGRIFTYYAMGWYRQAPGKERELVAAISRRGGSTYYADSVKGRFTISRDNAKNTVYLQMNSLKPEDTAVYYCNAPTKAGGSHYWGQGTQVTVSS”, the “polyreactivity (PSR sort gate)” value is on record as “high polyreactivity”.
To “QVQLVESGGGLVQAGGSLRLSCAASGRIFTYYAMGWYRQAPGKERELVAAITSRGGRTYYADSVKGRFTISRDNAKNTVYLQMNSLKPEDTAVYYCNVDRWRRTISHDIYGYWGQGTQVTVSS” belongs “high polyreactivity”; to “QVQLVESGGGLVQAGGSLRLSCAASGRIFTYYAMGWYSQAPGKERELVAAISRSGGRTYYADSVKGRFTISRDNAKNTVYLQMNSLTPEDTAVYYCAADRLSLRAYDYWGQGTQVTVSS”, “high polyreactivity”; to “QVQLVESGGGLVQAGGSLRLSCAASGRIFTYYAMRWYRQAPGKERELVAGITGSGASTYYADSVKGRFTISRDNAKNTVYLQMNSLKPEDTAVYYCNAPYVIRPFRGRYDYWGQGTLVTVSS”, “high polyreactivity”.
To “QVQLVESGGGLVQAGGSLRLSCAASGRIFTYYDMGWYREAPGKERELVAAITWGGGSTYYADSVKGRFTISRDNAKNSVYLQMNSLKPEDSAVYYCATLYYTFVWRHDYWGQGTQVTVSS” belongs “low polyreactivity”; to “QVQLVESGGGLVQAGGSLRLSCAASGRIFTYYTMAWYRQAPGKERELVAAISWSGGRTYYADSVKGRFTISRDNAKNTVYLQMNSLKPEDTAVYYCARRRAVRFYYWGQGTQVTVSS”, “high polyreactivity”; to “QVQLVESGGGLVQAGGSLRLSCAASGRIFTYYTMGWYRQAPAKYREFVAAISWSGTSTYYADSVKGRFTISRDNAKNTFYLQMNSLKPEDTAVYYFAARDPPRAGYDYWGQGTHVTVSS”, “high polyreactivity”.
As for “QVQLVESGGGLVQAGGSLRLSCAASGRIFVANAMGWYRQAPGKERELVAAISGRGSRTYYADSVKGRFTISRDNAKNAVYLQMNSLKPEDTAVYYCNARQRRNPGGYGYWGQGTQVTVSS”, the “polyreactivity (PSR sort gate)” value is “high polyreactivity”.
Then “QVQLVESGGGLVQAGGSLRLSCAASGRIFVDNAMGWYRQAPGKERELVATISWSGGSTYADSVKGRFTISRDNAKNTVYLQMNSLKPEDTAVYYCAADGSWQFYTLYQEFDYWGQGTQVTVSS”, with “low polyreactivity”; and “QVQLVESGGGLVQAGGSLRLSCAASGRIFVFNAMGWYRQAPGKEREFVAVISTGGGSTYYADSVKGRFTISRDNAKNTVYLQMNSLKPEDTAVYYCAAEWRVYYATYGYWGQGTQVTVSS”, with “high polyreactivity”; and “QVQLVESGGGLVQAGGSLRLSCAASGRIFVGYAMGWYRQAPGKEREFVAAITFRGGTTYYADSVKGRFTITRDYAKNTVYLQMNSLKPEDTAVYYCAVPLYLYSVEYGYWGQGNQVTVSS”, with “low polyreactivity”.
Then “QVQLVESGGGLVQAGGSLRLSCAASGRIFVGYAMGWYRQAPGKETELVAAISRDGDNTFYADSVKGRFTISRDNAKNTVYLQMNSLKPEDTAVYYCAVDYWVWYGSAYAYDYYWGQGTQVTVSS”, with “low polyreactivity”; and “QVQLVESGGGLVQAGGSLRLSCAASGRIFVGYPMGWYRQAPGKERELVAAITSGGSTYYADSVKGRFTISRDNAKNTVSFQMNSLKPEDTAVYYCNAAYQFDSYHLGGYRYEYWGQGTQVTVSS”, with “low polyreactivity”; and “QVQLVESGGGLVQAGGSLRLSCAASGRIFVGYYAMGWYRQAPGKERELVAAITIGGRTYYADSVKGRFTISRDNAKNTVYLQMNSLKPEDTAVYYCAASKYTRAYQEYGYWGQGTQVTVSS”, with “high polyreactivity”.
Then “QVQLVESGGGLVQAGGSLRLSCAASGRIFVHYVMGWYRQAPGKERELVAAITVSGGGTYYADSVKGRFTISRDNAKNTVYFQMNSLTPEDTAVYYCNAVPHPYDWGQGTQLTVSS”, with “low polyreactivity”.
In the case of “QVQLVESGGGLVQAGGSLRLSCAASGRIFVINAMGWYRQAPGKEREFVAGITSSGNTNYADSVKGRFTISRDNAKNTVYLQMNSLKPEDTAVYYCNAQVYLTWLTYWLYYPPNDYWGQGTQVTVSS”, the “polyreactivity (PSR sort gate)” value was “low polyreactivity”.
Then “QVQLVESGGGLVQAGGSLRLSCAASGRIFVINAMGWYRQAPGKERELVAAISQSGGSTYYADSVKGRFTISRDNAKNNVYLQMNSLKPEDTAVYYCNALSNVPYDYWGQGTQVTVSS”, with “low polyreactivity”; and “QVQLVESGGGLVQAGGSLRLSCAASGRIFVINAMGWYRQAPGKERELVAAISRRGANTYYADSVKGRFTISRDNAKNTVYLQMNSLKPEDTAVYYCNKVTVYRFRGDSWGQGTQVTVSS”, with “high polyreactivity”.
Then “QVQLVESGGGLVQAGGSLRLSCAASGRIFVINAMGWYRQAPGKERELVADITWSGGSTYADSVKGRFTISRDNAKNTVYLQMNSLKPEETAVYYCAKQRGGQPRSSTYYYWGQGTQVTVSS”, with “high polyreactivity”.
